Patent US8822420B2, “Peptides and aptamers thereof as specific modulators of mutant p53 function” (Universita Degli Studi di Trieste, priority 2008, dated 2014)
No end group written: not given here. Ahx = NCCCCCC(=O)O

Legend:
[1] = biological target: T1, p53 R175H (Homo sapiens, UniProt P04637, R175H); test: Co-immunoprecipitation of EGFP-TNV-PAs with p53 R175H in H1299 cells; assay type: binding; settings: H1299 cells co-transfected with p53 R175H and EGFP-TNV-PAs, IP anti-GFP
T1 construct: expression of full-length point mutants (hereinafter identified also as mut-p53 or mutant p53); expressed in transfected cells; host or cells: H1299 (p53-null)

[2] = biological target: T1, p53 R175H; test: EGR1-Luc luciferase assay in H1299 cells, p53 R175H; assay type: cell-based; settings: peptide 1.6, 4, 20 μM
Experimental: (§1) (a) The effect of PAs on mutant p53 transactivating activity was analyzed in MG63 cells transiently transfected with Myc-Luc reporter along with constructs expressing p53 D281G or empty vector and with p[…] vectors expressing PAs or control vectors pLPC-EGFP (EGFP) or p[…] (TNV). The promoter activity measured in each experiment was normalized to the value measured in the absence of mutant p53. RLU: Relative Luciferase Units. […] Expression of mutant p53 and PAs was analyzed by Western Blot with the indicated antibodies. (b) The effect of FsA79 peptide on the transactivation of EGR1 promoter by mutant p53 was analyzed in H1299 cells, transfected with EGR1-Luc reporter along with plasmids encoding either p53R175H (left) or p53R273H (right) and treated with increasing amounts of FsA79 peptide (1.6, 4, 20 μM). […] (c) The effect of PAs on p53 wt transcriptional activity was analyzed in H1299 cells transfected with p21-Luc reporter, wt p53-expressing vector or empty vector along with constructs expressing the EGFP-TNV-PAs or control vectors as in (a). […] (d) The effect of PAs on the transcriptional activity of TAp73α was analyzed as in (c). […] (e) The effect of PAs on p53 wt transcriptional activity was analyzed in H1299 cells transfected with Bax-Luc reporter, wt-p53 expressing vector or empty vector together with constructs expressing EGFP-TNV-PAs or control vectors as in FIG. 3(c). […]

[3] = biological target: T2, p53 R273H (Homo sapiens, UniProt P04637, R273H); test: EGR1-Luc luciferase assay in H1299 cells, p53 R273H; assay type: cell-based; settings: peptide 1.6, 4, 20 μM
T2 construct: expression of full-length point mutants (hereinafter identified also as mut-p53 or mutant p53); expressed in transfected cells; host or cells: H1299 (p53-null)
Experimental: as §1

[4] = test system: Sk-Br-3 cells; test: FACS analysis of DNA content (propidium iodide) of EGFP-positive Sk-Br-3 cells; assay type: cell-based
Experimental: (a) The apoptotic effect of PAs was analyzed in U20S (expressing p53 wt), H1299 (p53 null), Sk-Br-3 (expressing p53R175H) and MDA-MB-468 (expressing p53R273H) cells. Cells were transfected either with constructs expressing EGFP-TNV-PAs or with pLPCcontrol vector, harvested after 36 hours and stained with propidium iodide before analyzing the DNA content of EGFP-positive cells by flow cytometry. Histograms represent the average and the s.d. of the percentage of cells with sub-G1 DNA content measured in three independent experiments. […] At least 10000 EGFP-positive cells were analyzed in each acquisition. Histograms represent the average and s.d. of three independent experiments. […] Expression of the overexpressed EGFP-TNV-PAs as well as endogenous cleaved PARP (p85), p53R175H and the proapoptotic protein Bax was analyzed by Western Blot with the indicated antibodies. (d) Analysis of AnnexinV-PE-Cyan5 binding of MDA-MB-468 cells treated and analyzed as described in FIG. 4(c). […] FACS analysis of DNA content was then performed as in (a). Aliquots of cell lysates untreated (NT) or treated with 50 μM Etoposide (Eto) were analyzed by Western Blot. […] Cells were transfected with EGFP-PAs and then left untreated or treated with 100 μM PRIMA-1. After additional 20 hours cells were harvested and analyzed as in FIG. 4(a).
Sk-Br-3, MDA-MB-468, H1299 or U20S cells were seeded in 6 wells and transfected with pLPCEGFP-TNV16mers or pLPCEGFP-TNV or pLPC. For cell cycle analysis, cells were collected by trypsinization, recovering also the supernatants, and resuspended in PBS/0.1% Nonidet P-40 (NP-40) containing 2 μg/ml RnaseA. 10 min later, 10 μg/ml propidium iodide was added. Cells were analyzed by cytofluorimeter (FACScalibur) after additional 20 minutes.

[5] = test system: Sk-Br-3 cells; test: AnnexinV-PE-Cyan5 staining by flow cytometry, Sk-Br-3 cells; assay type: cell-based; settings: Sk-Br-3, GFP positive cells, 36 hours after transfection
Experimental: (§2) (a) The apoptotic effect of PAs was analyzed in U20S (expressing p53 wt), H1299 (p53 null), Sk-Br-3 (expressing p53R175H) and MDA-MB-468 (expressing p53R273H) cells. Cells were transfected either with constructs expressing EGFP-TNV-PAs or with pLPCcontrol vector, harvested after 36 hours and stained with propidium iodide before analyzing the DNA content of EGFP-positive cells by flow cytometry. Histograms represent the average and the s.d. of the percentage of cells with sub-G1 DNA content measured in three independent experiments. […] At least 10000 EGFP-positive cells were analyzed in each acquisition. Histograms represent the average and s.d. of three independent experiments. […] Expression of the overexpressed EGFP-TNV-PAs as well as endogenous cleaved PARP (p85), p53R175H and the proapoptotic protein Bax was analyzed by Western Blot with the indicated antibodies. (d) Analysis of AnnexinV-PE-Cyan5 binding of MDA-MB-468 cells treated and analyzed as described in FIG. 4(c). […] Aliquots of cell lysates untreated (NT) or treated with 50 μM Etoposide (Eto) were analyzed by Western Blot. […] After additional 20 hours cells were harvested and analyzed as in FIG. 4(a).
(§3) Sk-Br-3, MDA-MB-468, H1299 or U20S cells were seeded in 6 wells and transfected with pLPCEGFP-TNV16mers or pLPCEGFP-TNV or pLPC. […] Cells were analyzed by cytofluorimeter (FACScalibur) after additional 20 minutes.

[6] = test system: MDA-MB-468 cells; test: AnnexinV-PE-Cyan5 staining by flow cytometry, MDA-MB-468 cells; assay type: cell-based; settings: MDA-MB-468, GFP positive cells, 36 hours after transfection
Experimental: as §2, §3

[7] = test system: Sk-Br-3 cells; test: PARP cleavage (p85) by Western Blot in Sk-Br-3 cells; assay type: cell-based
Experimental: (a) The apoptotic effect of PAs was analyzed in U20S (expressing p53 wt), H1299 (p53 null), Sk-Br-3 (expressing p53R175H) and MDA-MB-468 (expressing p53R273H) cells. Cells were transfected either with constructs expressing EGFP-TNV-PAs or with pLPCcontrol vector, harvested after 36 hours and stained with propidium iodide before analyzing the DNA content of EGFP-positive cells by flow cytometry. Histograms represent the average and the s.d. of the percentage of cells with sub-G1 DNA content measured in three independent experiments. […] At least 10000 EGFP-positive cells were analyzed in each acquisition. Histograms represent the average and s.d. of three independent experiments. […] Expression of the overexpressed EGFP-TNV-PAs as well as endogenous cleaved PARP (p85), p53R175H and the proapoptotic protein Bax was analyzed by Western Blot with the indicated antibodies. […] FACS analysis of DNA content was then performed as in (a). Aliquots of cell lysates untreated (NT) or treated with 50 μM Etoposide (Eto) were analyzed by Western Blot. […] Cells were transfected with EGFP-PAs and then left untreated or treated with 100 μM PRIMA-1. After additional 20 hours cells were harvested and analyzed as in FIG. 4(a). […]
To specifically evaluate the effect on cells expressing the aptamers, propidium-iodide staining was measured only in the GFP positive population.

[8] = biological target: T3, wild-type p53 (Homo sapiens, UniProt P04637); test: Bax-Luc luciferase assay in H1299 cells, wild-type p53; assay type: cell-based
T3 construct: expressed in transfected cells; host or cells: H1299
Experimental: (§4) (a) The effect of PAs on mutant p53 transactivating activity was analyzed in MG63 cells transiently transfected with Myc-Luc reporter along with constructs expressing p53 D281G or empty vector and with pLPC-EGFP-TNV vectors expressing PAs or control vectors pLPC-EGFP (EGFP) or pLPC-EGFP-TNV (TNV). The promoter activity measured in each experiment was normalized to the value measured in the absence of mutant p53. RLU: Relative Luciferase Units. […] Expression of mutant p53 and PAs was analyzed by Western Blot with the indicated antibodies. (b) The effect of FsA79 peptide on the transactivation of EGR1 promoter by mutant p53 was analyzed in H1299 cells, transfected with EGR1-Luc reporter along with plasmids encoding either p53R175H (left) or p53R273H (right) and treated with increasing amounts of FsA79 peptide (1.6, 4, 20 μM). Luciferase assays were performed and represented as in (a). (c) The effect of PAs on p53 wt transcriptional activity was analyzed in H1299 cells transfected with p21-Luc reporter, wt p53-expressing vector or empty vector along with constructs expressing the EGFP-TNV-PAs or control vectors as in (a). Luciferase assays were performed and represented as in (a). (d) The effect of PAs on the transcriptional activity of TAp73α was analyzed as in (c). […] (f) Effect of PAs on TAp73a transcriptional activity on Bax-Luc reporter was analyzed as described in FIG. 3(d). […]

[9] = biological target: T4, TAp73α (Homo sapiens, UniProt O15350); test: Bax-Luc luciferase assay in H1299 cells, TAp73α; assay type: cell-based
T4 construct: expressed in transfected cells; host or cells: H1299
T4 sequence (O15350 1-636): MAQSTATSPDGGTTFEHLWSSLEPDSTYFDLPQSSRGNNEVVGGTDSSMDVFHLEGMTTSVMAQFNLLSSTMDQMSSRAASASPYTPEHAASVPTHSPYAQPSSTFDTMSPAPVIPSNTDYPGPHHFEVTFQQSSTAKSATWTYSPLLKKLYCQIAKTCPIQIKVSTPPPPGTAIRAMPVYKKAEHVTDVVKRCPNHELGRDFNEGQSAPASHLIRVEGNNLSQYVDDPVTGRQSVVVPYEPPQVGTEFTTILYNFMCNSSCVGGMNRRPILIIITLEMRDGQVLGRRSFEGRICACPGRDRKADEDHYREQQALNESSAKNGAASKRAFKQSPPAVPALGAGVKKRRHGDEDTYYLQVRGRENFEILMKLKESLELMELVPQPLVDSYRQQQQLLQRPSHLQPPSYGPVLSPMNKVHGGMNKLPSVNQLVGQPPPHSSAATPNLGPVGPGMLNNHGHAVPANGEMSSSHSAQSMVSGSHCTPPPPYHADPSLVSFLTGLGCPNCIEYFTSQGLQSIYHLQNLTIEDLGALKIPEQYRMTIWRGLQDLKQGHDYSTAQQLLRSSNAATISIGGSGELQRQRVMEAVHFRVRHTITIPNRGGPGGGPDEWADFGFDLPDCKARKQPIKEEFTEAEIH
Experimental: as §4

[10] = biological target: T5, p53 D281G (Homo sapiens, UniProt P04637, D281G); test: c-Myc-Luc luciferase assay in MG63 cells; assay type: cell-based; settings: EGFP-TNV-PAs, 36 hours
T5 construct: expression of full-length point mutants (hereinafter identified also as mut-p53 or mutant p53); expressed in transfected cells; host or cells: MG63 (p53-null)
Experimental: as §1

In the case of AKYCQCAAKVRVTAAM [A3], the “binding to p53 R175H by co-immunoprecipitation” value (from here on “binding to p53 R175H”) [1] is reported as “showed a stronger interaction with p53 R175H”.
“FAM-Ahx-peptide sA79 ({FAM-Ahx}-DVADWESCGEYWCYRV; cysteine pairing not given here) [FsA79, fluoresceinated version of sA79 peptide]” was tested, and the “effect on transactivation of EGR1-Luc reporter by p53 R175H” value [2] was “inhibits the transactivation activity of both mutants” and the “effect on transactivation of EGR1-Luc reporter by p53 R273H” value [3] was “inhibits the transactivation activity of both mutants”.
In the case of GPVVPRTQYMSLAFGW [A29], the “binding to p53 R175H” value [1] is reported as “showed a stronger interaction with p53 R175H”, the “apoptotic response (sub-G1) compared with Etoposide treatment alone” value ([4]; Sk-Br-3) is reported as “comparable to that observed upon drug treatment alone” and the “sub-G1 peak compared with PRIMA-1” value ([4]; Sk-Br-3, PRIMA-1 100 μM for 20 hours) is reported as “comparable to that induced by PRIMA-1”. The AnnexinV positive cells [5] was “approximately 30%”, the AnnexinV positive cells [6] was “approximately 30%” and the “cleaved p85 fragment of PARP-1” value [7] was “evident increase”.
For “IQITLTGWSARVTTSG [A60, 16mer peptide aptamer in thioredoxin scaffold; free peptide not synthetized]”, the “binding to p53 R175H” value [1] was “showed a stronger interaction with p53 R175H”, the “effect on transactivation activity of wild-type p53 on Bax-Luc reporter” value [8] was “all aptamers, but A60, do not significantly affect” and the “effect on transactivation activity of p73 on Bax-Luc reporter” value [9] was “all aptamers, but A60, do not significantly affect”.
With “QRGLYCSCVTNQNAEV [B6, reference compound]” the “effect on transactivation activity of mutant p53 on c-Myc-Luc reporter” value [10] was “did not showed any effect”, the “sub-G1 peak (apoptotic cell death)” value ([4]; Sk-Br-3 (p53 R175H), GFP positive population, 36 hours after transfection) was “unable to induce apoptosis” and the AnnexinV positive cells [5] was “less than 15%”. The AnnexinV positive cells [6] was “less than 15%”.
VWAESCDDCGEYWRYV [A79] was tested, and the “binding to p53 R175H” value [1] was “showed a stronger interaction with p53 R175H”.
